Reference: patent US20140087995A1 (published 2014)
One block for each binder: values may come before it. Numbered stars: 1 amine (or outer) side, 2 acyl side, 3 side chain; on linkers, the order of the positions; unused ones are H or OH. Bridge positions count the residues as written; N and C are the ends. Side chains are listed from the residue outwards. Ends that are not written are not given here. * marks the point of attachment. C20 diacid = O=C(O)CCCCCCCCCCCCCCCCCCC(=O)*; γGlu = O=C(O)[C@H](CCC(=O)[*:2])N[*:1]

Legend:
[1] = molecular target: T1, human calcitonin receptor (human, UniProt P30988 25-474); assay: ratio of IC50 at hCTR to IC50 at the human amylin receptor (reference)
T1 construct: whole, on cells; also called hCTR; hCT
T1 sequence (looked up): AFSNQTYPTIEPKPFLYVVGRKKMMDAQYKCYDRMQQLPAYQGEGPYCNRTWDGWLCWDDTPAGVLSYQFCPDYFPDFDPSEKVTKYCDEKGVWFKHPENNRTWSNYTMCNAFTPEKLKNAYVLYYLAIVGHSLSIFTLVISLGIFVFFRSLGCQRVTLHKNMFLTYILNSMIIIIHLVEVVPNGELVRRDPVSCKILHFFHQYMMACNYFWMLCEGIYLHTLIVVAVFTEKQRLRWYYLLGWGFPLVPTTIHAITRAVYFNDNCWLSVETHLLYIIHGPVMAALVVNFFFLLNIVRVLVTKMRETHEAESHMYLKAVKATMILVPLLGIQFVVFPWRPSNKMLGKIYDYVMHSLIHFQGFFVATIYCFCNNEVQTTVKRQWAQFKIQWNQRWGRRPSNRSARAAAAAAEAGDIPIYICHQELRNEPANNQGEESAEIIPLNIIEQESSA
Outline: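 Competition binding by SPA uses membrane preparations (35 ng/μL final) in pH 7.4 Hepes buffer with 1 mM CaCl2 and 5 mM MgCl₂. Incubation lasts 120 min at 25° C, and IC₅₀ comes from one-site fitting.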

[2] = molecular target: T1, human calcitonin receptor; assay: SPA competition binding, membranes with human calcitonin receptor, displacement of 125I-calcitonin (Assay VII)
Outline: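 BHK hCTR membranes 35 ng/μL + SPA beads 0.05 mg/well; buffer 50 mM Hepes pH 7.4, 1 mM CaCl2, 5 mM MgCl₂, 0.1% OA, 0.02% Tween20. 120 min, 25° C., shaking. Scintillation count; IC50 by one-site binding competition.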

Ratio hCT/hAmylin binding [1]: 26
IC50 [2]: 15.5 nM
B1: N^α1 N^α1-[(4S)-4-carboxy-4-[[(4S)-4-carboxy-4-(19-carboxynonadecanoylamino)butanoyl]amino]butanoyl]-[Glu14,Arg17,Pro21,Pro27]-h-amylin (peptide)
peptide: {C20 diacid-γGlu-γGlu}-KCNTATCATQRLAEFLRHSSPNFGAIPSSTNVGSNTY-NH2
modifications: disulfide 2-7
SMILES: CC[C@H](C)[C@H](NC(=O)[C@H](C)NC(=O)CNC(=O)[C@H](Cc1ccccc1)NC(=O)[C@H](CC(N)=O)NC(=O)[C@@H]1CCCN1C(=O)[C@H](CO)NC(=O)[C@H](CO)NC(=O)[C@H](Cc1c[nH]cn1)NC(=O)[C@H](CCCNC(=N)N)NC(=O)[C@H](CC(C)C)NC(=O)[C@H](Cc1ccccc1)NC(=O)[C@H](CCC(=O)O)NC(=O)[C@H](C)NC(=O)[C@H](CC(C)C)NC(=O)[C@H](CCCNC(=N)N)NC(=O)[C@H](CCC(N)=O)NC(=O)[C@@H](NC(=O)[C@H](C)NC(=O)[C@@H]1CSSC[C@H](NC(=O)[C@H](CCCCN)NC(=O)CC[C@H](NC(=O)CC[C@H](NC(=O)CCCCCCCCCCCCCCCCCCC(=O)O)C(=O)O)C(=O)O)C(=O)N[C@@H](CC(N)=O)C(=O)N[C@@H]([C@@H](C)O)C(=O)N[C@@H](C)C(=O)N[C@@H]([C@@H](C)O)C(=O)N1)[C@@H](C)O)C(=O)N1CCC[C@H]1C(=O)N[C@@H](CO)C(=O)N[C@@H](CO)C(=O)N[C@H](C(=O)N[C@@H](CC(N)=O)C(=O)N[C@H](C(=O)NCC(=O)N[C@@H](CO)C(=O)N[C@@H](CC(N)=O)C(=O)N[C@H](C(=O)N[C@@H](Cc1ccc(O)cc1)C(N)=O)[C@@H](C)O)C(C)C)[C@@H](C)O
notes: also called compound 15

Ratio hCT/hAmylin binding [1]: 69.7
IC50 [2]: 30.9 nM
B2: N^ε1-[(4S)-4-carboxy-4-(19-carboxynonadecanoylamino)butanoyl]-[Arg17,Pro21,Pro27]-h-amylin (peptide)
peptide: K([γGlu-C20 diacid])CNTATCATQRLANFLRHSSPNFGAIPSSTNVGSNTY-NH2
modifications: disulfide 2-7; N-terminus assumed
SMILES: CC[C@H](C)[C@H](NC(=O)[C@H](C)NC(=O)CNC(=O)[C@H](Cc1ccccc1)NC(=O)[C@H](CC(N)=O)NC(=O)[C@@H]1CCCN1C(=O)[C@H](CO)NC(=O)[C@H](CO)NC(=O)[C@H](Cc1c[nH]cn1)NC(=O)[C@H](CCCNC(=N)N)NC(=O)[C@H](CC(C)C)NC(=O)[C@H](Cc1ccccc1)NC(=O)[C@H](CC(N)=O)NC(=O)[C@H](C)NC(=O)[C@H](CC(C)C)NC(=O)[C@H](CCCNC(=N)N)NC(=O)[C@H](CCC(N)=O)NC(=O)[C@@H](NC(=O)[C@H](C)NC(=O)[C@@H]1CSSC[C@H](NC(=O)[C@@H](N)CCCCNC(=O)CC[C@H](NC(=O)CCCCCCCCCCCCCCCCCCC(=O)O)C(=O)O)C(=O)N[C@@H](CC(N)=O)C(=O)N[C@@H]([C@@H](C)O)C(=O)N[C@@H](C)C(=O)N[C@@H]([C@@H](C)O)C(=O)N1)[C@@H](C)O)C(=O)N1CCC[C@H]1C(=O)N[C@@H](CO)C(=O)N[C@@H](CO)C(=O)N[C@H](C(=O)N[C@@H](CC(N)=O)C(=O)N[C@H](C(=O)NCC(=O)N[C@@H](CO)C(=O)N[C@@H](CC(N)=O)C(=O)N[C@H](C(=O)N[C@@H](Cc1ccc(O)cc1)C(N)=O)[C@@H](C)O)C(C)C)[C@@H](C)O
notes: also called compound 48

Ratio hCT/hAmylin binding [1]: 17.3
IC50 [2]: 19.5 nM
B3: N^ε1-[(4S)-4-carboxy-4-[[(4S)-4-carboxy-4-(19-carboxynonadecanoylamino)butanoyl]amino]butanoyl]-[Asp14,Arg17,Pro22,Pro26,Asp35]-h-amylin (peptide)
peptide: K([γGlu-γGlu-C20 diacid])CNTATCATQRLADFLRHSSNPFGAPLSSTNVGSDTY-NH2
modifications: disulfide 2-7; N-terminus assumed
SMILES: CC(C)C[C@H](NC(=O)[C@H](CCCNC(=N)N)NC(=O)[C@H](CCC(N)=O)NC(=O)[C@@H](NC(=O)[C@H](C)NC(=O)[C@@H]1CSSC[C@H](NC(=O)[C@@H](N)CCCCNC(=O)CC[C@H](NC(=O)CC[C@H](NC(=O)CCCCCCCCCCCCCCCCCCC(=O)O)C(=O)O)C(=O)O)C(=O)N[C@@H](CC(N)=O)C(=O)N[C@@H]([C@@H](C)O)C(=O)N[C@@H](C)C(=O)N[C@@H]([C@@H](C)O)C(=O)N1)[C@@H](C)O)C(=O)N[C@@H](C)C(=O)N[C@@H](CC(=O)O)C(=O)N[C@@H](Cc1ccccc1)C(=O)N[C@@H](CC(C)C)C(=O)N[C@@H](CCCNC(=N)N)C(=O)N[C@@H](Cc1c[nH]cn1)C(=O)N[C@@H](CO)C(=O)N[C@@H](CO)C(=O)N[C@@H](CC(N)=O)C(=O)N1CCC[C@H]1C(=O)N[C@@H](Cc1ccccc1)C(=O)NCC(=O)N[C@@H](C)C(=O)N1CCC[C@H]1C(=O)N[C@@H](CC(C)C)C(=O)N[C@@H](CO)C(=O)N[C@@H](CO)C(=O)N[C@H](C(=O)N[C@@H](CC(N)=O)C(=O)N[C@H](C(=O)NCC(=O)N[C@@H](CO)C(=O)N[C@@H](CC(=O)O)C(=O)N[C@H](C(=O)N[C@@H](Cc1ccc(O)cc1)C(N)=O)[C@@H](C)O)C(C)C)[C@@H](C)O
notes: also called compound 3

Ratio hCT/hAmylin binding [1]: 2.5
IC50 [2]: 0.353 nM
B4: N^ε1-[(4S)--4-carboxy-4-(19-carboxynonadecanoylamino)butanoyl]-[Glu14,Arg17,Pro21,Pro27,Pro37]-h-amylin (peptide)
peptide: K([γGlu-C20 diacid])CNTATCATQRLAEFLRHSSPNFGAIPSSTNVGSNTP-NH2
modifications: disulfide 2-7; N-terminus assumed
SMILES: CC[C@H](C)[C@H](NC(=O)[C@H](C)NC(=O)CNC(=O)[C@H](Cc1ccccc1)NC(=O)[C@H](CC(N)=O)NC(=O)[C@@H]1CCCN1C(=O)[C@H](CO)NC(=O)[C@H](CO)NC(=O)[C@H](Cc1c[nH]cn1)NC(=O)[C@H](CCCNC(=N)N)NC(=O)[C@H](CC(C)C)NC(=O)[C@H](Cc1ccccc1)NC(=O)[C@H](CCC(=O)O)NC(=O)[C@H](C)NC(=O)[C@H](CC(C)C)NC(=O)[C@H](CCCNC(=N)N)NC(=O)[C@H](CCC(N)=O)NC(=O)[C@@H](NC(=O)[C@H](C)NC(=O)[C@@H]1CSSC[C@H](NC(=O)[C@@H](N)CCCCNC(=O)CC[C@H](NC(=O)CCCCCCCCCCCCCCCCCCC(=O)O)C(=O)O)C(=O)N[C@@H](CC(N)=O)C(=O)N[C@@H]([C@@H](C)O)C(=O)N[C@@H](C)C(=O)N[C@@H]([C@@H](C)O)C(=O)N1)[C@@H](C)O)C(=O)N1CCC[C@H]1C(=O)N[C@@H](CO)C(=O)N[C@@H](CO)C(=O)N[C@H](C(=O)N[C@@H](CC(N)=O)C(=O)N[C@H](C(=O)NCC(=O)N[C@@H](CO)C(=O)N[C@@H](CC(N)=O)C(=O)N[C@H](C(=O)N1CCC[C@H]1C(N)=O)[C@@H](C)O)C(C)C)[C@@H](C)O
notes: also called compound 12

Ratio hCT/hAmylin binding [1]: 1.2
IC50 [2]: 0.305 nM
Binder: K([γGlu-γGlu-C20 diacid])CNTATCATQRLAEFLRHSSPNFGAIPSSTNVGSNTP-NH2 (disulfide 2-7 (inferred), also called compound 13)

Ratio hCT/hAmylin binding [1]: 15.7
IC50 [2]: 6.3 nM
B5: N{Alpha-1}-[(4S)-4-carboxy-4-(19-carboxynonadecanoylamino)butanoyl]-[Glu14,Arg17,Pro21,Pro27,Lys34]-h-amylin (peptide)
peptide: {C20 diacid-γGlu}-KCNTATCATQRLAEFLRHSSPNFGAIPSSTNVGKNTY-NH2
modifications: disulfide 2-7
SMILES: CC[C@H](C)[C@H](NC(=O)[C@H](C)NC(=O)CNC(=O)[C@H](Cc1ccccc1)NC(=O)[C@H](CC(N)=O)NC(=O)[C@@H]1CCCN1C(=O)[C@H](CO)NC(=O)[C@H](CO)NC(=O)[C@H](Cc1c[nH]cn1)NC(=O)[C@H](CCCNC(=N)N)NC(=O)[C@H](CC(C)C)NC(=O)[C@H](Cc1ccccc1)NC(=O)[C@H](CCC(=O)O)NC(=O)[C@H](C)NC(=O)[C@H](CC(C)C)NC(=O)[C@H](CCCNC(=N)N)NC(=O)[C@H](CCC(N)=O)NC(=O)[C@@H](NC(=O)[C@H](C)NC(=O)[C@@H]1CSSC[C@H](NC(=O)[C@H](CCCCN)NC(=O)CC[C@H](NC(=O)CCCCCCCCCCCCCCCCCCC(=O)O)C(=O)O)C(=O)N[C@@H](CC(N)=O)C(=O)N[C@@H]([C@@H](C)O)C(=O)N[C@@H](C)C(=O)N[C@@H]([C@@H](C)O)C(=O)N1)[C@@H](C)O)C(=O)N1CCC[C@H]1C(=O)N[C@@H](CO)C(=O)N[C@@H](CO)C(=O)N[C@H](C(=O)N[C@@H](CC(N)=O)C(=O)N[C@H](C(=O)NCC(=O)N[C@@H](CCCCN)C(=O)N[C@@H](CC(N)=O)C(=O)N[C@H](C(=O)N[C@@H](Cc1ccc(O)cc1)C(N)=O)[C@@H](C)O)C(C)C)[C@@H](C)O
notes: also called compound 36

Ratio hCT/hAmylin binding [1]: 27.6
IC50 [2]: 32.5 nM
B6: N^ε1-[(4S)-4-carboxy-4-[[(4S)-4-carboxy-4-(19-carboxynonadecanoylamino)butanoyl]amino]butanoyl]-[Asp14,Arg17,Pro21,Pro26,Asp35]-h-amylin (peptide)
peptide: K([γGlu-γGlu-C20 diacid])CNTATCATQRLADFLRHSSPNFGAPLSSTNVGSDTY-NH2
modifications: disulfide 2-7; N-terminus assumed
SMILES: CC(C)C[C@H](NC(=O)[C@H](CCCNC(=N)N)NC(=O)[C@H](CCC(N)=O)NC(=O)[C@@H](NC(=O)[C@H](C)NC(=O)[C@@H]1CSSC[C@H](NC(=O)[C@@H](N)CCCCNC(=O)CC[C@H](NC(=O)CC[C@H](NC(=O)CCCCCCCCCCCCCCCCCCC(=O)O)C(=O)O)C(=O)O)C(=O)N[C@@H](CC(N)=O)C(=O)N[C@@H]([C@@H](C)O)C(=O)N[C@@H](C)C(=O)N[C@@H]([C@@H](C)O)C(=O)N1)[C@@H](C)O)C(=O)N[C@@H](C)C(=O)N[C@@H](CC(=O)O)C(=O)N[C@@H](Cc1ccccc1)C(=O)N[C@@H](CC(C)C)C(=O)N[C@@H](CCCNC(=N)N)C(=O)N[C@@H](Cc1c[nH]cn1)C(=O)N[C@@H](CO)C(=O)N[C@@H](CO)C(=O)N1CCC[C@H]1C(=O)N[C@@H](CC(N)=O)C(=O)N[C@@H](Cc1ccccc1)C(=O)NCC(=O)N[C@@H](C)C(=O)N1CCC[C@H]1C(=O)N[C@@H](CC(C)C)C(=O)N[C@@H](CO)C(=O)N[C@@H](CO)C(=O)N[C@H](C(=O)N[C@@H](CC(N)=O)C(=O)N[C@H](C(=O)NCC(=O)N[C@@H](CO)C(=O)N[C@@H](CC(=O)O)C(=O)N[C@H](C(=O)N[C@@H](Cc1ccc(O)cc1)C(N)=O)[C@@H](C)O)C(C)C)[C@@H](C)O
notes: also called compound 1
